Experimental data taken from US20200291071A1.

B1: Orf11*S (acyltransferase, single mutant W163A of Orf11*) (protein)
chain: MGSSHHHHHHSSGLVPRGSHMMMDPETVRIALGLEERTAAWLTELDELGPPAEPVRLPRGEEARDLLRRLEVPELDAEEIVAAAPDPDRDPALWWLLERTHHAIVRHMGDHRAKPRGGPPLPYEGGAAARYFHVYVFLATVPAVRRFHAERGIPDEVGWETLTQLGELVAIHRRKYGQGGMNMQAWTTYHLRGILYRLGRLQFSLATGKDGTPHLGLHVPEWGGPLLPKAYDESLHRARPFFDRHFPEHGARVAWGSSWMLDPQLEEYLTEDSNIIQLARFWTLTDSAPEPGNADGDSSILEFVFRYNGQPLDELPQRSSLERAVIAHLKAGRHWHMRTGFVKLP

Key:
[1] = molecular target: r6,Glm-Tei-pseudoaglycone (compound 12); assay: ITC
[2] = molecular target: r6,Glm-Tei-pseudoaglycone (compound 12); assay: ITC (isothermal titration calorimetry), exothermic injections, sigmoidal isotherm over molar ratio about 0.45 to 1.85
[3] = molecular target: r4,Glm-Tei-pseudoaglycone (compound 6)
[4] = molecular target: r6,Glm-Tei-pseudoaglycone (compound 12)

Row | Molecule | Kd [1] [µM] | Kd [2] [µM] | Km (acyl-transfer kinetics, HPLC) [3] | Km (acyl-transfer kinetics, HPLC) [4]
1 | Dbv27 (methyltransferase encoded by gene dbv27) (enzyme) | 5 | 5.1 |  | 
2 | B1 |  |  | Km=0.07 mM | Km=0.3±0.03 mM
